We go through 15 molecules from patent US20140154255A1 (AbbVie / Abbott, published 2014).

Test [1] concerns the target T1, human VEGF-A residues 27-191 of Accession #AAV38412 (human, UniProt P15692 27-191).
T1 construct: range 27-191
The experiment in a line: SS DLL4-VEGF DVD-Ig format; BIAcore by paragraph 262. As to the method:
(§1) The binding kinetics and affinity of the antibodies for VEGF (human VEGF-A residues 27-191 of Accession #AAV38412) was determined by using a BIAcore T200 surface plasmon resonance system (BIAcore, GE Healthcare, Piscataway, N.J.). Coupling running buffer was HBS-EP+ running buffer (10 mM HEPES, 150 mM sodium chloride, 3 mM EDTA 0.05% P-20, pH 7.4); assay running buffer was HBS-EP+ with 300 mM sodium chloride and 0.1 mg/mL BSA (Sigma A7906). Polyclonal goat anti-human Fc (Thermo Scientific prod#31125) was first immobilized to the biosensor surface in 10 mM sodium acetate, pH 4.5 using standard BIAcore amine coupling reagents (N-ethyl-N′-dimethylamino-propylcarbodiimide, EDC; N-hydroxysuccinimide, NHS; and ethanolamine HCl, pH 8.5). For binding kinetics assay a series of cycles were performed, each cycle consisted of 1) mAb capture, 2) Ag or buffer injection, 3) dissociation phase and 4) regeneration. Briefly, anti-VEGF antibodies were captured on parallel surfaces at a low flow rate of 10 μL/min. Capture levels were kept low to minimize avidity due to the dimeric nature of VEGF. No capture of the antibody was made on the reference surface to serve for primary referencing and as a negative control. Subsequently, VEGF or buffer only was injected to all flow cells at a flow rate of 80 μL/min for three minutes to monitor association followed by a 20-minute flow of assay rinning buffer at a flow rate of 80 μL/min to monitor dissociation. […] At the end of each cycle the surface was regenerated with 10 mM glycine, pH 1.5 at a flow rate of 60 μL/min in pulses of 60 and 10 sec. Binding data were fit to the 1:1 Langmuir model with mass transport term included using Biacore T200 Evaluation Software to determine the binding constants.

In test [2] the target is T1, human VEGF-A residues 27-191 of …. The experiment in a line: BIAcore SPR [continued]. As to the method:
as §1

For test [3] the target is unchanged. As to the kind of experiment: BIAcore SPR, KD WT/KD mutant [continued]. As to the method: as §1
A general note: Surface plasmon resonance follows binding to a sensor surface in real time, without labels.

Test [4] shares this target. As to the kind of experiment: BIAcore SPR, KD WT/KD mutant. As to the method:
as §1

Test [5] has as its target T2, VEGF (R&D systems, Minneapolis, Minn.) (UniProt P15692-4 27-191, limits assumed). As to the kind of experiment: BIAcore SPR, improvement over WT. The protocol:
(§2) RL was kept low to minimize avidity due to the dimeric nature of VEGF. No capture of the antibody was made on the reference surface to serve as a negative control. Subsequently, VEGF was injected to all flow cells at a flow rate of 50 μL/min for two minutes to monitor association followed by a 25-minute flow of HBS-P running buffer (10 mM HEPES, 150 mM sodium chloride, 0.005% P-20, pH 7.4) to monitor the dissociation phase. At each cycle, VEGF, in 6 different concentrations of VEGF ranging between 0 nM and 512 nM and at four-fold increments, was injected over the surface. […] Binding data were fit to the 1:1 Langmuir model to extract binding constants from the BIAevaluate software. Double referencing was applied in each analysis to eliminate background responses from the reference surface and buffer only control. All the binding kinetics data were analyzed at least three separate determinations.

In test [6] the target is T2, VEGF (R&D systems, Minneapolis, Minn.). As to the kind of experiment: BIAcore SPR, WT/mutant. As to the method: as §2
Test [7] has as its target T3, unlabeled human VEGF (ELISA coat) (human, UniProt P15692-4 27-191, limits assumed). The experiment in a line: ELISA 1 hr, EC50 WT/EC50 mutant. As to the method:
(§3) To detect identified variants binding to antigen, ELISA plates (Nunc-Immuno MaxiSorp plates, Nalge Nunc, Rochester, N.Y.) were coated overnight at 4° C. with unlabeled human VEGF at 1 μg/mL in 0.2 M sodium carbonate-bicarbonate buffer (pH 9.4, Pierce, Rockford, Ill.). The plates were then blocked with SuperBlock Blocking Buffer (Pierce, Rockford, Ill.) for 30 min and washed with Washing Buffer (PBS containing 0.1% Tween 20). All the washing steps were performed for three times. […] The plates were washed and 100 μL of goat anti-human kappa HRP-conjugated antibody (Southern Biotech, Birmingham, Ala.) diluted at 1:1000 in ELISA buffer was added to each well. After 30 minutes of incubation, plates were washed and bound antibodies were detected by addition of TMB 1 Component HRP Microwell substrate (BioFx #TMBW-1000-01). The reaction was terminated by addition of 100 μL/well of 650 nM Stop Reagent for TMB Microwell substrate and the absorbance was measured at 650 nm using a VERSAmax microplate reader (Molecular Devices, Sunnyvale, Calif.). Data were fitted using nonlinear regression with the software […]

Test [8] deals with T3, unlabeled human VEGF (ELISA coat). As to the kind of experiment: ELISA overnight, EC50 WT/EC50 mutant. The protocol:
as §3

Test [9] addresses T2, VEGF (R&D systems, Minneapolis, Minn.). As to the kind of experiment: BIAcore SPR. The protocol:
as §2

Test [10] deals with T1, human VEGF-A residues 27-191 of …. The experiment in a line: BIAcore SPR. As to the method:
as §1

In test [11] the target is T2, VEGF (R&D systems, Minneapolis, Minn.). As to the kind of experiment: BIAcore SPR, mutant/WT. As to the method: as §2

Residue numbers refer to the chain shown, from its start. Numbers in names are those of the source.

T2 sequence (P15692 other isoform, or with tags, fused parts or gaps limits assumed): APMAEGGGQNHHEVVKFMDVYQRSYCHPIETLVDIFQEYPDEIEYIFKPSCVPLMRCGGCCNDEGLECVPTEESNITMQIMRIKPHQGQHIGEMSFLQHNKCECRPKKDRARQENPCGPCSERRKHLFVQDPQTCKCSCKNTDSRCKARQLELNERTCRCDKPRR
T3 sequence (P15692 other isoform, or with tags, fused parts or gaps limits assumed): as above
T1 sequence (P15692 other isoform, or with tags, fused parts or gaps limits assumed): as above

B1: E 56 Q (bispecific antibody)
VH: EVQLVESGGGLVQPGGSLRLSCAASGFTFSNFPMAWVRQAPGKGLEWVATISSSDGTTYYRDSVKGRFTISRDNAKNSLYLQMNSLRAEDTAVYYCARGYYNSPFAYWGQGTLVTVSSASTKGPEVQLVESGGGLVQPGGSLRLSCAASGYTFTNYGMNWVRQAPGKGLEWVGWINTYTGQPTYAADFKRRFTFSLDTSKSTAYLQMNSLRAEDTAVYYCAKYPHYYGSSHWYFDVWGQGTLVTVSS
VL: DIQMTQSPSSLSASVGDRVTITCRASEDIYSNLAWYQQKPGKAPKLLIYDTNNLADGVPSRFSGSGSGTDFTLTISSLQPEDFATYYCQQYNNYPPTFGQGTKLEIKRTVAAPDIQMTQSPSSLSASVGDRVTITCSASQDISNYLNWYQQKPGKAPKVLIYFTSSLHSGVPSRFSGSGSGTDFTLTISSLQPEDFATYYCQQYSTVPWTFGQGTKVEIK
notes: also called SS DLL4-VEGF DVD-Ig variant E56Q
In the case of B1, the “Affinity relative to WT” value in test [1] was 0.7 fold.

B2: H97 A (SS DLL4-VEGF DVD-Ig) (bispecific antibody)
VH: B1 VH with Q181E, H225A
VL: B1 VL
notes: also called SS DLL4-VEGF DVD-Ig variant H97A
Turning to B2, in test [2], the dissociation constant (Kd) – broadly, the concentration at which binding is half-saturated – worked out at 5.03 nM; the koff (commonly the rate constant with which the complex falls apart) was found to be 0.000269 s⁻¹; the kon (as a rule, the second-order rate constant of association) turned out to be 53600 M⁻¹ s⁻¹. This molecule also yielded an affinity improvement in test [3] of 1 fold.

B3: E 56 T (bispecific antibody)
VH: B1 VH with Q181T
VL: B1 VL
notes: also called SS DLL4-VEGF DVD-Ig variant E56T
In the case of B3, the “Affinity relative to WT” value in test [1] worked out at 0.8 fold.

B4: G 55 Q (bispecific antibody)
VH: B1 VH with G180Q, Q181E
VL: B1 VL
notes: also called SS DLL4-VEGF DVD-Ig variant G55Q
With B4, the “Affinity relative to WT” value in test [1] came out at 0.9 fold.

B5: N 31 G (bispecific antibody)
VH: B1 VH with N155G, Q181E
VL: B1 VL
notes: also called SS DLL4-VEGF DVD-Ig variant N31G
As for B5, in [1], the “Affinity relative to WT” value amounted to 1.1 fold.

B6: H97 F (SS DLL4-VEGF DVD-Ig) (bispecific antibody)
VH: B1 VH with Q181E, H225F
VL: B1 VL
notes: also called SS DLL4-VEGF DVD-Ig variant H97F
As to B6, in test [2], the Kd worked out at 11 nM, the koff came out at 8.15e-05 s⁻¹ and the kon was found to be 7210 M⁻¹ s⁻¹. The molecule further displayed an affinity improvement in [3] of 0.8 fold.

B7: T 28 D (bispecific antibody)
VH: B1 VH with T152D, Q181E
VL: B1 VL
notes: also called SS DLL4-VEGF DVD-Ig variant T28D
On to B7, for which, in [1], the “Affinity relative to WT” value turned out to be 0.8 fold.

B8: T 30 F (bispecific antibody)
VH: B1 VH with T154F, Q181E
VL: B1 VL
notes: also called SS DLL4-VEGF DVD-Ig variant T30F
With B8, in test [1], the “Affinity relative to WT” value stood at 0.4 fold.

B9: T 28 W (bispecific antibody)
VH: B1 VH with T152W, Q181E
VL: B1 VL
notes: also called SS DLL4-VEGF DVD-Ig variant T28W
With B9, in test [1], the “Affinity relative to WT” value amounted to 0.6 fold.

B10: E 56 R (bispecific antibody)
VH: B1 VH with Q181R
VL: B1 VL
notes: also called SS DLL4-VEGF DVD-Ig variant E56R
Turning to B10, the “Affinity relative to WT” value in [1] is 0.9 fold.

B11: E 56 W (bispecific antibody)
VH: B1 VH with Q181W
VL: B1 VL
notes: also called SS DLL4-VEGF DVD-Ig variant E56W
For B11, the “Affinity relative to WT” value in [1] was found to be 0.6 fold.

B12: 91 (antibody, human IgG1, V domains shown)
VH: EVQLVESGGGLVQPGGSLRLSCAASGYTFTFYGMNWVRQAPGKGLEWVGWINTYTGEPTYAADFKRRFTFSLDTSKSTAYLQMNSLRAEDTAVYYCAKYPHYYGSSHWYFDVWGQGTLVTVSS
VL: DIQMTQSPSSLSASVGDRVTITCSASQDISNYLNWYQQKPGKAPKVLIYFTSSLHSGVPSRFSGSGSGTDFTLTISSLQPEDFATYYCQQYSTVPWTFGQGTKVEIKR
Consider B12, for which the affinity improvement in test [4] is 4.7 fold. In [5], the ΔKD is 3.4 fold. The molecule further had a Δkoff in test [6] of 2.9 fold. Moreover, the “ELISA 1hr binding” value in [7] was determined as 0.7 fold. Further, the ELISA o/n binding in test [8] was found to be 0.3 fold. Besides, in [9], the affinity, expressed as Kd, was 0.575 nM; the koff turned out to be 0.000121 s⁻¹; the kon was determined as 211000 M⁻¹ s⁻¹. Moreover, in test [10], binding was put at a Kd of 0.091 nM, the koff was determined as 2.48e-05 s⁻¹ and the kon amounted to 272000 M⁻¹ s⁻¹. Besides, in test [11], the Δkon was 1.2 fold.

B13: 95 (antibody, human IgG1, V domains shown)
VH: B12 VH with F31N, H101D
VL: B12 VL
Molecule B13 gave an affinity improvement in test [4] of 0.4 fold. The same molecule showed a ΔKD in [5] of 1.3 fold. Also, in test [6], the Δkoff amounted to 0.9 fold. Also, the “ELISA 1hr binding” value in [7] was 4.5 fold. In [8], the ELISA o/n binding stood at 3 fold. In [9], this molecule came in with a Kd of 1.54 nM, a koff of 0.000396 s⁻¹ and a kon of 262000 M⁻¹ s⁻¹. For the same molecule, in test [10], binding was put at a Kd of 1.3 nM, the koff was determined as 0.000351 s⁻¹ and the kon came to 270000 M⁻¹ s⁻¹. This molecule gave a Δkon in [11] of 1.5 fold.

B14: 92 (antibody, human IgG1, V domains shown)
VH: B12 VH with F31N, H101P
VL: B12 VL
In turn, B14 gave an affinity improvement in test [4] of 0.8 fold. The same molecule registered a ΔKD in test [5] of 2.8 fold. In [6], this molecule came in with a Δkoff of 1.4 fold. For the same molecule, the “ELISA 1hr binding” value in [7] came to 2.7 fold. In [8], this molecule displayed an ELISA o/n binding of 1 fold. In test [9], this molecule registered a Kd of 0.708 nM, a koff of 0.000256 s⁻¹ and an on-rate (kon) of 367000 M⁻¹ s⁻¹. In test [10], this molecule had a Kd of 0.522 nM, a koff of 0.00021 s⁻¹ and a kon of 401000 M⁻¹ s⁻¹. For the same molecule, the Δkon in [11] came out at 2 fold.

B15: 93 (antibody, human IgG1, V domains shown)
VH: B12 VH with F31N, H101E
VL: B12 VL
As to B15, the affinity improvement in test [4] was determined as 0.3 fold. Besides, the ΔKD in [5] amounted to 2.6 fold. Also, in [6], the Δkoff amounted to 1.6 fold. In addition, the “ELISA 1hr binding” value in [7] amounted to 4.3 fold. This molecule yielded an ELISA o/n binding in test [8] of 3.6 fold. Further, in [9], the affinity, expressed as Kd, was 0.761 nM; the koff came to 0.000225 s⁻¹; the kon was 292000 M⁻¹ s⁻¹. Also, in test [10], the Kd is 1.59 nM, the koff amounted to 0.000358 s⁻¹ and the kon was 225000 M⁻¹ s⁻¹. The Δkon in test [11] was 1.6 fold.
